Assay: Leukapheresis with and without mobilization and manufacturing of CAR-T/TCR-T cells from cancer patients
Type: in vivo, human
Conditions: mobilization prior to leukapheresis
Description: A study is conducted to compare the generation of cell therapy products from cancer patients who have received 2 or more cycles of prior chemotherapy. Patients with different types of different cancers (e.g., diffuse large B cell lymphoma, acute B-ALL, CLL, multiple myeloma, breast cancer, ovarian cancer, lung cancer etc.) are eligible. Leukapheresis products are collected from the subjects with and without mobilization with Perixafor (0.24 mg/kg subcutaneously daily on days 1-3). T cells are isolated and used for manufacturing of CAR-T and TCR-T cells using lentiviral mediated gene transduction as described in the preceding sections.

B1: G-CSF: cytokine, G-CSF (filgrastim, Amgen) (protein, chains of the INN, looked up)
chain: MTPLGPASSLPQSFLLKCLEQVRKIQGDGAALQEKLCATYKLCHPEELVLLGHSLGIPWAPLSSCPSQALQLAGCLSQLHSGLFLYQGLLQALEGISPELGPTLDTLQLDVADFATTIWQQMEELGMAPALQPTQGAMPAFASAFQRRAGGVLVASHLQSFLEVSYRVLRHLAQP
  yield of leukapheresis product for generation of CAR-T cells: improve the yield

Reference: patent publication US20210290676A1, “IMPROVING THE EFFICACY AND SAFETY OF ADOPTIVE CELLULAR THERAPIES” (University of Southern California, priority 2018, published 2021)
